T1: C terminal domain of polyadenylate-binding protein 1 (human, UniProt P11940 544-623)
T1 chain: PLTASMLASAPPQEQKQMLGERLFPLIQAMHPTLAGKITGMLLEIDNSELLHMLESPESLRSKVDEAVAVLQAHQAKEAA

T2: programmed cell death 6-interacting protein (ALIX) V domain (human)
T2 chain: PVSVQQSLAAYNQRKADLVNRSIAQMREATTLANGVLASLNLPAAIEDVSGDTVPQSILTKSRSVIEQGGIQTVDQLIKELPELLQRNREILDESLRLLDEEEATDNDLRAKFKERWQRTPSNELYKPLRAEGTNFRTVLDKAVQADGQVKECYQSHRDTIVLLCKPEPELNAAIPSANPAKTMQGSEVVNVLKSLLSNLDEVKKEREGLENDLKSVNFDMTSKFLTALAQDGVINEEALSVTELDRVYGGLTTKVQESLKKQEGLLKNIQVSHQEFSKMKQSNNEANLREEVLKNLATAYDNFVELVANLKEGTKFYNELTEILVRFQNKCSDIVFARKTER

B1: Mu homology domain (MHD) of the AP-2 subunit mu (domain or fragment)
chain: RNELFLDVLESVNLLMSPQGQVLSAHVSGRVVMKSYLSGMPECKFGMNDKIVIEKQGKGTADETSKSGKQSIAIDDCTFHQCVRLSKFDSERSISFIPPDGEFELMRYRTTKDIILPFRVIPLVREVGRTKLEVKVVIKSNFKPSLLAQKIEVRIPTPLNTSGVQVICMKGKAKYKASENAIVWKIKRMAGMKESQISAEIELLPTNDKKKWARPPISMNFEVPFAPSGLKVRYLKVFEPKLNYSDHDVIKWVRYIGRSGIYETR
B2: N-terminal domain of clathrin (domain or fragment)
chain: MAQILPIRFQEHLQLQNLGINPANIGFSTLTMESDKFICIREKVGEQAQVVIIDMNDPSNPIRRPISADSAIMNPASKVIALKAGKTLQIFNIEMKSKMKAHTMTDDVTFWKWISLNTVALVTDNAVYHWSMEGESQPVKMFDRHSSLAGCQIINYRTDAKQKWLLLTGISAQQNRVVGAMQLYSVDRKVSQPIEGHAASFAQFKMEGNAEESTLFCFAVRGQAGGKLHIIEVGTPPTGNQPFPKKAVDVFFPPEAQNDFPVAMQISEKHDVVFLITKYGYIHLYDLETGTCIYMNRISGETIFVTAPHEATAGIIGVNRKGQVLSVCVEEENIIPYITNVLQNPDLALRMAVRNNLAGAEELF
B3: centrosomal protein of 55 kDa EABR domain (domain or fragment)
chain: FNSSINNIHEMEIQLKDALEKNQQWLVYDQQREVYVKGLLAKIFELEKKTETAAH
B4: VHS domain of the ADP-ribosylation factor-binding protein GGA3 (domain or fragment)
chain: ATNPSNRQEDWEYIIGFCDQINKELEGPQIAVRLLAHKIQSPQEWEALQALTVLEACMKNCGRRFHNEVGKFRFLNELIKVVSPKYLGDRVSEKVKTKVIELLYSWTMALPEEAKIKDAYHMLKRQGIVQS
B5: GAE domain of the ADP-ribosylation factor-binding protein GGA3 (domain or fragment)
chain: SSALPVTAYDKNGFRILFHFAKECPPGRPDVLVVVVSMLNTAPLPVKSIVLQAAVPKSMKVKLQPPSGTELSPFSPIQPPAAITQVMLLANPLKEKVRLRYKLTFALGEQLSTEVGEVDQFP
B6: tumor susceptibility gene 101 protein UEV domain (domain or fragment)
chain: AVSESQLKKMVSKYKYRDLTVRETVNVITLYKDLKPVLDSYVFNDGSSRELMNLTGTIPVPYRGNTYNIPICLWLLDTYPYNPPICFVKPTSSMTIKTGKHVDANGKIYLPYLHEWKHPQSDLLGLIQVMIVVFGDEPPVFSRP

Assays:
Test in all cases: FP
EGFR 992-1007 (Human) = target: EGFR 992-1007 (Human)
ACP2 407-422 (Human) = target: ACP2 407-422 (Human)
L (OLVV) = target: L (OLVV)
Nsp4 75-90 (BAV) = target: Nsp4 75-90 (BAV)
[1] = target: NP (ZEBOV) peptide with the 340-YQQL-343 sequence (Zaire ebolavirus, UniProt P18272)
[2] = target: T1, C terminal domain of …
[3] = target: B2
AP1B1 626-641 (Human) = target: AP1B1 626-641 (Human)
RdRp 1840-1855 (SVV) = target: RdRp 1840-1855 (SVV)
ARRB2 367-382 (Human) = target: ARRB2 367-382 (Human)
[4] = target: Nsp3_(1765-1780) (EEEV) peptide (Eastern equine encephalitis virus)
[5] = target: T2, programmed cell death 6-interacting …
[6] = target: CEP55 binding peptide from TEX1 (human, UniProt Q8IWB6)
[7] = target: Rabies virus (RABV) protein P peptide (Rabies virus)
[8] = target: Reston ebolavirus (REBOV) nucleoprotein (NP) peptide (Reston ebolavirus)
[9] = target: CEP55 binding peptide from ALIX (human, UniProt Q8WUM4)
M 26-41 (RABV) = target: M 26-41 (RABV)
SYNRG 664-679 (Human) = target: SYNRG 664-679 (Human)
[10] = target: NP (ZEBOV) peptide with the 466-YGEY-469 stretch (Zaire ebolavirus, UniProt P18272)
[11] = target: TSG101 binding peptide from ALIX (PDC6IP) (human, UniProt Q8WUM4)
VP40 1-20 (SEBOV) = target: VP40 1-20 (SEBOV)

B1 was tested, and the Kd (EGFR 992-1007 (Human)) was 2.4 µM, the Kd (ACP2 407-422 (Human)) was 220 µM and the Kd (L (OLVV)) was 11 µM. For the same binder, the Kd (Nsp4 75-90 (BAV)) was 16 µM and the Kd [1] was 9.5 µM.

In the case of MSKLSVNAPEFYPSGY [PABP-interacting protein 1 peptide PAIP1_(125-140)], the Kd [2] is reported as 1.6 µM.

Work on NSMLNPNAVPFQPSPQ [N_(2-17) (BeV) peptide] yielded a Kd [2] of 2.7 µM.

KSNLNPNAKEFVPGVK [PABP-interacting protein 2 peptide PAIP2_(108-123)] showed a Kd [2] of 0.16 µM.

Binder VDGAADLIDFSVPTDE [mu-NS_(705-720) (MRV1) peptide] has a Kd [3] of 32 µM.

Binder B2 has a Kd (AP1B1 626-641 (Human)) of 280 µM, a Kd (RdRp 1840-1855 (SVV)) of about 800 µM and a Kd (ARRB2 367-382 (Human)) of 39 µM. For the same binder, the Kd [4] was 27 µM.

In the case of VDEEKGLYPNLKLTEPTAPMIHNYM [Nsp4_(118-142) (BAV) peptide], the Kd [5] is reported as 160 µM.

For HPLLNPSALEFNPSQT [N_(351-366) (HCoV 229E) peptide], the Kd [2] was 23 µM.

With TTGLNPTAVPFTLRNL [P/V/C_(183-198) (NiV) peptide] the Kd [2] was 15 µM.

Work on B3 yielded a Kd [6] of about 0.3 µM, a Kd [7] of 22 µM and a Kd [8] of 2.2 µM. For the same binder, the Kd [9] was about 0.3 µM.

B4 showed a Kd (M 26-41 (RABV)) of 150 µM.

In the case of B5, the Kd (SYNRG 664-679 (Human)) is reported as 11 µM and the Kd [10] is reported as 10 µM.

Work on B6 yielded a Kd [11] of 150 µM and a Kd (VP40 1-20 (SEBOV)) of 12 µM.

With SAGLNPAAVPFVPKNQ [P/V/C_(183-198) (HeV) peptide] the Kd [2] was 2 µM.
